In paper PMC6609622, “Poly(ADP-ribose) polymerase-1 antagonizes DNA resection at double-strand breaks”:

Biological target: PARP-1 (human, UniProt P09874 1-1014)
Test: EMSA; 5 and 30 uM NAD+; remains bound; EMSA: 20 mM Na-HEPES pH 7.5, 0.1 mM DTT, 0.05% Triton X-100, 100 ug/mL BSA, 5 mM MgCl2, 2 mM ATP, 100 nM DNA, 37 C 10 min, then 0.2% glutaraldehyde 15 min; DNA
Settings: protein: recombinant; label: 32P; blunt

PARP-1, sequence (P09874 whole entry): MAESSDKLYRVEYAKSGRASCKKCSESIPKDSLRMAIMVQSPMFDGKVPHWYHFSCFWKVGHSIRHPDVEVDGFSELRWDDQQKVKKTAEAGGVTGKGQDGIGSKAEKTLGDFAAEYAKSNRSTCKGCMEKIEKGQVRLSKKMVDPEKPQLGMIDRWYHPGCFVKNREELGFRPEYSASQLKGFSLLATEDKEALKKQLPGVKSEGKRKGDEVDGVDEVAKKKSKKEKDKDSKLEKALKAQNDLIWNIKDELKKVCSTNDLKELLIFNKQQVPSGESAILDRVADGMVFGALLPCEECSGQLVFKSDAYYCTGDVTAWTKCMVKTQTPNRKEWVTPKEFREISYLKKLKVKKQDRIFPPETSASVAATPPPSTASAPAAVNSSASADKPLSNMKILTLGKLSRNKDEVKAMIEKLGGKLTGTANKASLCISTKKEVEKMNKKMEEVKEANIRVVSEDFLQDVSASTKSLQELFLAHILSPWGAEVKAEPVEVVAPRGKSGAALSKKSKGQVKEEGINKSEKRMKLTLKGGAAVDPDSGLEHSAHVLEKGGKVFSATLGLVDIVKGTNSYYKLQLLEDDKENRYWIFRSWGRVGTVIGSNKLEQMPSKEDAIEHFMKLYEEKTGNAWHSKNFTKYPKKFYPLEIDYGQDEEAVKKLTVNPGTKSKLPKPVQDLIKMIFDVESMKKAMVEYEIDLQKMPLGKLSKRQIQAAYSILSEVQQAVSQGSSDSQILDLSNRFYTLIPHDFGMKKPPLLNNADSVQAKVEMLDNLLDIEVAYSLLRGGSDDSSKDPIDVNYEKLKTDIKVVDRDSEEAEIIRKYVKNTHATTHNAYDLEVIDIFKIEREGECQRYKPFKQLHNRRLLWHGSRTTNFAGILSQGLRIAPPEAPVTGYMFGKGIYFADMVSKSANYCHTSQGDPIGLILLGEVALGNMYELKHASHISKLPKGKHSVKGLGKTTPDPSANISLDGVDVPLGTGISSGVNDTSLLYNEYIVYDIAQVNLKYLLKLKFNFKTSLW

B1: JYM696/JYM698 (dsDNA)
DNA 1: GGGCGAATTGGGCCCGACGTCGCATGCTCCTCTAGACTCGAGGAATTCGGTACCCCGGGTTCGAAATCGATAAGCTTACAGTCTCCATTTAAAGGACAAG
DNA 2: CTTGTCCTTTAAATGGAGACTGTAAGCTTATCGATTTCGAACCCGGGGTACCGAATTCCTCGAGTCTAGAGGAGCATGCGACGTCGGGCCCAATTCGCCC
  binding result: binds
